Target: T1, extracellular domain of the recombinant protein NRP-1 from RnD systems (human, UniProt O14786 22-856)
T1 construct: Bought extracellular domain
Assay: Bio-layer interferometry (BLI), synthetic peptide and recombinant NRP-1 extracellular domain
Description: Ligands preparation: proteins were incubated in a PBS buffer with a 1:3 ratio molar ratio of biotin (biotin-PEG4-NHS from Pierce EZ kit, prepared following the manufacturer's instructions). Free biotin was removed using a desalting column (Pierce). The biotinylated protein (called ligand) was immobilized onto streptavidin biosensor tips and dipped into wells containing the buffer with the analyte of interest (association) or without (dissociation).
From the best consensus mode, peptide sequences SEQ ID NO:3 for leptin and SEQ ID NO:4 for NRP-1 have been identified (FIG. 2). The Leptin (OB) binding domain (SEQ ID:3) to NRP-1 (SEQ ID:2) was validated by BLI using a synthetized peptide (SEQ ID:3) and the extracellular domain of the recombinant protein NRP-1 from RnD systems (FIG. 3).

T1 sequence (O14786 22-856 V179A limits assumed): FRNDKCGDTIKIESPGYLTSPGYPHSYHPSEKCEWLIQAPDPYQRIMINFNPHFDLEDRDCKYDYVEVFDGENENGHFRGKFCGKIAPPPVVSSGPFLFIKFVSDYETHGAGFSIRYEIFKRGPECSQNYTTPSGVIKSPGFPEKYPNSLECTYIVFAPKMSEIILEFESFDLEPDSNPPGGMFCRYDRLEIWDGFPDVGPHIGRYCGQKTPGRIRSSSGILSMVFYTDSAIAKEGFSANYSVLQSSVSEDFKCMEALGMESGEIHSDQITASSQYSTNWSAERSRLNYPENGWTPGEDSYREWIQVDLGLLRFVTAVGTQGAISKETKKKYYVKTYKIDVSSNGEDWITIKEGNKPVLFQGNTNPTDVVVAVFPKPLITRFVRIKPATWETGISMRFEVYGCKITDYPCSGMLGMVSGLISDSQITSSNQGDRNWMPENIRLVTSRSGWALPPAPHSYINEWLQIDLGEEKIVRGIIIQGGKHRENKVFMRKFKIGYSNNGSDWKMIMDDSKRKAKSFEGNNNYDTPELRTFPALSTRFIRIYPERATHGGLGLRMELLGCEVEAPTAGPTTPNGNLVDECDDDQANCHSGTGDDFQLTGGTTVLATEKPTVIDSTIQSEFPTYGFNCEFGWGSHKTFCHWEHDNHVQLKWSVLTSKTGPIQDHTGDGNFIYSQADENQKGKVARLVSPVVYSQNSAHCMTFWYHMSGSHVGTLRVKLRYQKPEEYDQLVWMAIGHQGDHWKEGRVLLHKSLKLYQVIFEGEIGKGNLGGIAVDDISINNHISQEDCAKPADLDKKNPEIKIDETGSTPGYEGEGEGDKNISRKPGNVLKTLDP

B1: synthetized leptin (OB) peptide SEQ ID NO:3 (peptide)
peptide: ENLRDLLHVLAFSKSCHLPWASGLETL
notes: Synthetic peptide derived from leptin, identified by docking and then tested by BLI
  binding result: binds

— patent publication US20180230189A1 (INSERM INSTITUT NATIONAL DE LA SANT ET DE LA RECHERCHE …, published 2018)
